Measured values reported in publication PMC3587646, “Structural Characterization of a Recombinant Fusion Protein by Instrumental Analysis and Molecular Modeling” (PLoS ONE, 2013).

Target: VEGF-A (UniProt P15692 1-395)
Assay: SPR; unpublished data of the authors; format and conditions not told
Conditions: both partners purified

- Kd: 0.429 nM
B1: Conbercept (Fc fusion)
chain: GRPFVEMYSEIPEIIHMTEGRELVIPCRVTSPNITVTLKKFPLDTLIPDGKRIIWDSRKGFIISNATYKEIGLLTCEATVNGHLYKTNYLTHRQTNTIIDVVLSPSHGIELSVGEKLVLNCTARTELNVGIDFNWEYPSSKHQHKKLVNRDLKTQSGSEMKKFLSTLTIDGVTRSDQGLYTCAASSGLMTKKNSTFVRVHEKPFVAFGSGMESLVEATVGERVRIPAKYLGYPPPEIKWYKNGIPLESNHTIKAGHVLTIMEVSERDTGNYTVILTNPISKEKQSHVVSLVVYVPP
modifications: seven N-glycosylation sites, all occupied (the N in the tryptic peptides 29-39 VTSPNITVTLK, 60-69 GFIISNATYK, 117-124 LVLNCTAR, 193-198 NSTFVR, 242-253 NGIPLESNHTIK, 267-281 DTGNYTVILTNPISK, 372-380 …); two inter-chain disulfide bonds at the Fc hinge
